This assay concerns the target recombinant human interleukin-22 (IL-22), expressed in E. coli from pEThTIF, refolded, not glycosylated (human) (UniProt Q9GZX6). Description: X-ray crystal structure, surface buried between monomer A and monomer B.

Turning to “recombinant human interleukin-22 (IL-22), expressed in E. coli from pEThTIF, refolded, not glycosylated (from UniProt Q9GZX6 29-179) (ligand)”, the interface area was 2250 Å^2.

Source of the values: patent US20040002586A1.
